Laboratory results: the supplement of paper PMC10567573

B1: CAMK2A (parent)
chain: CIQQILEAVLHCHQMGVVHRDLKP

Variants of: B1
Assay: protein stability index of a GFP-peptide fusion (GPS, HEK-293T) (PSI 1-6); higher = more stable
Conditions: c terminus: a fixed tail appended
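Also: lentivirally expressed fusions sorted by FACS into six bins by GFP to DsRed ratio, PSI derived from sequencing read proportions per bin multiplied by bin number.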

Question: With CIQQILVAVLHCHQMGVVHRDLKP as the variant, how does the protein stability index read?
Answer: 1.8

Question: For CIQQILRAVLHCHQMGVVHRDLKP, which protein stability index is on record?
Answer: 2.81

Question: Which protein stability index does the source give for CIQQILSAVLHCHQMGVVHRDLKP here?
Answer: 2.57

Question: Which protein stability index does the source give for CIQQILYAVLHCHQMGVVHRDLKP here?
Answer: 4.43

Question: For CIQQILDAVLHCHQMGVVHRDLKP, which protein stability index is on record?
Answer: 3.99

Question: For CIQQILKAVLHCHQMGVVHRDLKP, which protein stability index is on record?
Answer: 2.25

Question: With CIQQILFAVLHCHQMGVVHRDLKP as the variant, how does the protein stability index read?
Answer: 2.42

Question: For CIQQILWAVLHCHQMGVVHRDLKP, which protein stability index is on record?
Answer: 2.78

Question: Which protein stability index does the source give for CIQQILEKVLHCHQMGVVHRDLKP here?
Answer: 2.86

Question: For CIQQILETVLHCHQMGVVHRDLKP, which protein stability index is on record?
Answer: 3.67

Question: With CIQQILECVLHCHQMGVVHRDLKP as the variant, how does the protein stability index read?
Answer: 2.57

Question: For CIQQILEGVLHCHQMGVVHRDLKP, which protein stability index is on record?
Answer: 3.6

Question: For CIQQILEYVLHCHQMGVVHRDLKP, which protein stability index is on record?
Answer: 2.54

Question: For CIQQILERVLHCHQMGVVHRDLKP, which protein stability index is on record?
Answer: 1.5

Question: Which protein stability index does the source give for CIQQILEQVLHCHQMGVVHRDLKP here?
Answer: 2.42

Question: With CIQQILEWVLHCHQMGVVHRDLKP as the variant, how does the protein stability index read?
Answer: 4.4

Question: Which protein stability index does the source give for CIQQILEFVLHCHQMGVVHRDLKP here?
Answer: 3.18

Question: With CIQQILEVVLHCHQMGVVHRDLKP as the variant, how does the protein stability index read?
Answer: 2.26

Question: Which protein stability index does the source give for CIQQILEPVLHCHQMGVVHRDLKP here?
Answer: 2.9

Question: With CIQQILEMVLHCHQMGVVHRDLKP as the variant, how does the protein stability index read?
Answer: 3.63

Question: For CIQQILEHVLHCHQMGVVHRDLKP, which protein stability index is on record?
Answer: 2.39

Question: With CIQQILEDVLHCHQMGVVHRDLKP as the variant, how does the protein stability index read?
Answer: 2.04

Question: With CIQQILEAVLHCHAMGVVHRDLKP as the variant, how does the protein stability index read?
Answer: 2.29

Question: With IIQQILEAVLHCHQMGVVHRDLKP as the variant, how does the protein stability index read?
Answer: 3.46

Question: With YIQQILEAVLHCHQMGVVHRDLKP as the variant, how does the protein stability index read?
Answer: 2.37

Question: Which protein stability index does the source give for VIQQILEAVLHCHQMGVVHRDLKP here?
Answer: 2.22

Question: Which protein stability index does the source give for QIQQILEAVLHCHQMGVVHRDLKP here?
Answer: 1.13

Question: Which protein stability index does the source give for KIQQILEAVLHCHQMGVVHRDLKP here?
Answer: 2.82

Question: Which protein stability index does the source give for MIQQILEAVLHCHQMGVVHRDLKP here?
Answer: 4.15

Question: For LIQQILEAVLHCHQMGVVHRDLKP, which protein stability index is on record?
Answer: 3.19

Question: With RIQQILEAVLHCHQMGVVHRDLKP as the variant, how does the protein stability index read?
Answer: 2.22

Question: Which protein stability index does the source give for TIQQILEAVLHCHQMGVVHRDLKP here?
Answer: 2.82

Question: For WIQQILEAVLHCHQMGVVHRDLKP, which protein stability index is on record?
Answer: 1.78

Question: With CIQQILEAVDHCHQMGVVHRDLKP as the variant, how does the protein stability index read?
Answer: 1.95

Question: Which protein stability index does the source give for CIQQILEAVKHCHQMGVVHRDLKP here?
Answer: 1.9

Question: For CIQQILEAVGHCHQMGVVHRDLKP, which protein stability index is on record?
Answer: 1.67

Question: Which protein stability index does the source give for CIQQILEAVNHCHQMGVVHRDLKP here?
Answer: 2.05

Question: For CIQQILEAVSHCHQMGVVHRDLKP, which protein stability index is on record?
Answer: 2.21

Question: With CIQQILEAVRHCHQMGVVHRDLKP as the variant, how does the protein stability index read?
Answer: 2.37

Question: With CIQQILEAVEHCHQMGVVHRDLKP as the variant, how does the protein stability index read?
Answer: 1.53

Question: With CIQQILEAVPHCHQMGVVHRDLKP as the variant, how does the protein stability index read?
Answer: 1.66

Question: For CIQQILEAVTHCHQMGVVHRDLKP, which protein stability index is on record?
Answer: 2.11

Question: Which protein stability index does the source give for CIQQILEAVFHCHQMGVVHRDLKP here?
Answer: 2.72

Question: For CIQQILEAVAHCHQMGVVHRDLKP, which protein stability index is on record?
Answer: 1.35

Question: Which protein stability index does the source give for CIQQILEAVQHCHQMGVVHRDLKP here?
Answer: 2.19

Question: Which protein stability index does the source give for CIQQILEAVMHCHQMGVVHRDLKP here?
Answer: 3.74

Question: With CIQQILEAVWHCHQMGVVHRDLKP as the variant, how does the protein stability index read?
Answer: 4.24

Question: Which protein stability index does the source give for CIQQILEAVHHCHQMGVVHRDLKP here?
Answer: 2.19

Question: With CIQQILEAVVHCHQMGVVHRDLKP as the variant, how does the protein stability index read?
Answer: 3.33

Question: Which protein stability index does the source give for CIQQALEAVLHCHQMGVVHRDLKP here?
Answer: 4.67

Question: Which protein stability index does the source give for CIQQKLEAVLHCHQMGVVHRDLKP here?
Answer: 2.16

Question: Which protein stability index does the source give for CIQQMLEAVLHCHQMGVVHRDLKP here?
Answer: 4.53

Question: For CIQQSLEAVLHCHQMGVVHRDLKP, which protein stability index is on record?
Answer: 1.69

Question: Which protein stability index does the source give for CIQQFLEAVLHCHQMGVVHRDLKP here?
Answer: 2.79

Question: With CIQQELEAVLHCHQMGVVHRDLKP as the variant, how does the protein stability index read?
Answer: 2.3

Question: With CIQQHLEAVLHCHQMGVVHRDLKP as the variant, how does the protein stability index read?
Answer: 2.44

Question: For CIQQRLEAVLHCHQMGVVHRDLKP, which protein stability index is on record?
Answer: 2.2

Question: With CIQQQLEAVLHCHQMGVVHRDLKP as the variant, how does the protein stability index read?
Answer: 1.73

Question: Which protein stability index does the source give for CIQQNLEAVLHCHQMGVVHRDLKP here?
Answer: 1.71

Question: With CIQQPLEAVLHCHQMGVVHRDLKP as the variant, how does the protein stability index read?
Answer: 1.81

Question: With CIQQDLEAVLHCHQMGVVHRDLKP as the variant, how does the protein stability index read?
Answer: 2.65

Question: For CIQQCLEAVLHCHQMGVVHRDLKP, which protein stability index is on record?
Answer: 3.12

Question: With CIQQWLEAVLHCHQMGVVHRDLKP as the variant, how does the protein stability index read?
Answer: 2.01

Question: Which protein stability index does the source give for CIQQTLEAVLHCHQMGVVHRDLKP here?
Answer: 2.89

Question: For CIQQILEAKLHCHQMGVVHRDLKP, which protein stability index is on record?
Answer: 1.72

Question: For CIQQILEAPLHCHQMGVVHRDLKP, which protein stability index is on record?
Answer: 1.26

Question: For CIQQILEATLHCHQMGVVHRDLKP, which protein stability index is on record?
Answer: 2.86

Question: For CIQQILEARLHCHQMGVVHRDLKP, which protein stability index is on record?
Answer: 2.01

Question: With CIQQILEAQLHCHQMGVVHRDLKP as the variant, how does the protein stability index read?
Answer: 1.96

Question: For CIQQILEACLHCHQMGVVHRDLKP, which protein stability index is on record?
Answer: 2.82

Question: For CIQQILEAYLHCHQMGVVHRDLKP, which protein stability index is on record?
Answer: 3.08

Question: Which protein stability index does the source give for CIQQILEALLHCHQMGVVHRDLKP here?
Answer: 3.23

Question: With CIQQILEANLHCHQMGVVHRDLKP as the variant, how does the protein stability index read?
Answer: 1.96

Question: With CIQQILEAILHCHQMGVVHRDLKP as the variant, how does the protein stability index read?
Answer: 2.04

Question: For CIQQILEAHLHCHQMGVVHRDLKP, which protein stability index is on record?
Answer: 2.35

Question: Which protein stability index does the source give for CIQQILEAALHCHQMGVVHRDLKP here?
Answer: 1.86

Question: Which protein stability index does the source give for CIQQILEAGLHCHQMGVVHRDLKP here?
Answer: 2

Question: With CIQQILEAELHCHQMGVVHRDLKP as the variant, how does the protein stability index read?
Answer: 1.87

Question: Which protein stability index does the source give for CIQQILEADLHCHQMGVVHRDLKP here?
Answer: 1.83

Question: Which protein stability index does the source give for CIQQILEAMLHCHQMGVVHRDLKP here?
Answer: 2.92

Question: Which protein stability index does the source give for CIQQILEAWLHCHQMGVVHRDLKP here?
Answer: 2.45

Question: For CIQQILEAVLVCHQMGVVHRDLKP, which protein stability index is on record?
Answer: 1.53

Question: Which protein stability index does the source give for CIQQILEAVLECHQMGVVHRDLKP here?
Answer: 2.91

Question: For CIQQILEAVLPCHQMGVVHRDLKP, which protein stability index is on record?
Answer: 1.69

Question: With CIQQILEAVLICHQMGVVHRDLKP as the variant, how does the protein stability index read?
Answer: 3.32

Question: For CIQQILEAVLMCHQMGVVHRDLKP, which protein stability index is on record?
Answer: 4.07

Question: For CIQQILEAVLDCHQMGVVHRDLKP, which protein stability index is on record?
Answer: 3.55

Question: With CIQQILEAVLSCHQMGVVHRDLKP as the variant, how does the protein stability index read?
Answer: 2.86

Question: With CIQQILEAVLFCHQMGVVHRDLKP as the variant, how does the protein stability index read?
Answer: 3.5

Question: Which protein stability index does the source give for CIQQILEAVLKCHQMGVVHRDLKP here?
Answer: 1.72

Question: With CIQQILEAVLQCHQMGVVHRDLKP as the variant, how does the protein stability index read?
Answer: 1.9

Question: With CIQQILEAVLCCHQMGVVHRDLKP as the variant, how does the protein stability index read?
Answer: 2.39

Question: Which protein stability index does the source give for CIQQILEAVLNCHQMGVVHRDLKP here?
Answer: 2.4

Question: For CIQQILEAVLTCHQMGVVHRDLKP, which protein stability index is on record?
Answer: 2.39
